Assay results: patent US7910550B2, “Human kunitz-type inhibitor with enhanced antifibrinolytic activity” (STC.UNM, priority 2004, dated 2011)

Experiments:
[1] = test system: HT-1080 fibrosarcoma xenografts; format: in vivo, SCID mice
Method: The relative mRNA abundance in the snap-frozen tumor xenograft samples was assessed by oligonucleotide-based microarray analysis using an Affymetrix […] Human Genome U133 set (Affymetrix, Inc., Santa Clara, Calif.). This microarray consists of two array units of over one million unique oligonucleotide features covering over 39,000 transcript variants that represent 33,000 of the best characterized human genes. Additional information regarding these chips is available on-line at the Affymetrix, Inc. website. Biotinylated cRNA probe preparation, processing, hybridization and normalization were performed as described in the Affymetrix […] Expression Analysis Manual. Florescence images were captured using a gene array scanner (Affymetrix, Inc., Santa Clara, Calif.) and expression analysis was performed using GeneSpring v5.1 software. The wild-type TFPI-2 transfected (WT) tumor ratio of medians was normalized with that obtained from mock-transfected (MT) tumors.

[2] = test system: human umbilical vein endothelial cells (HUVECs); experiment: In vitro human endothelial cell angiogenesis assay (capillary tube formation on ECMATRIX); format: cell-based; conditions: for inhibition of angiogenesis (capillary-like tube formation): HUVECs on matrix
Description: The angiogenesis assay is commercially available from Chemicon International, Inc. (Temecula, Calif.), and involves growing human umbilical vein endothelial cells (HUVECs) on a proprietary matrix, followed by assessing angiogenesis on this matrix by counting new branch points in sprouting endothelial cells.
A semi-quantitative assay for in vitro angiogenesis was utilized. Human umbilical vein endothelial cells (HUVEC, Clonetics Corp., Walkersville, Md.) were maintained in 25 cm^2 flasks in EGM-2 media (Clonetics Corp.) supplemented with 2% fetal bovine serum, gentamicin, amphotericin-B, hEGF, hydrocortisone, VEGF, hFGF-B, R^3-IGF-1, ascorbic acid and heparin. For assay, a 48-well tissue culture plate was coated with 100 μl of ECMATRIX (Chemicon International, Inc., Temecula, Calif.) followed by incubation at 37° C. for one hour. Approximately 5×10^4 cells were then seeded onto the surface of the polymerized matrix. Varying concentrations of full-length human TFPI-2, diluted in EGM-2 media and filtered, were added to the wells and plate was placed in 37° C.-humidified CO2 incubator. Each treatment was performed in duplicate wells. Separately, VEGF was used as a positive control. The three-dimensional organization of cells was examined every hour under an inverted photomicroscope. The capillary tube branch point formation was counted in each well following eight hours of incubation. For each concentration, eight randomly chosen areas under 250× magnified field were observed. The results are expressed as number of branching points (mean±SEM) and the differences between each mean value was tested by one way analysis of variance (ANOVA). Statistically p-value <0.05 was accepted.
To examine the effect of full-length human TFPI-2 on morphogenesis (capillary-like tube formation) of endothelial cells, HUVECs were seeded on the matrigel and treated with full-length human TFPI-2 (0.2 μM-5 μM).

[3] = TFPI-2 expressing tumors over mock-transfected tumors
[4] = human fibrosarcomas secreting wild-type human TFPI-2

B1: TFPI-2: Human tissue factor pathway inhibitor-2, 213 amino acid polypeptide with three tandem Kunitz-type domains (SEQ ID NO:1) (protein, listed as Homo sapiens)
chain: DAAQEPTGNNAEICLLPLDYGPCRALLLRYYYDRYTQSCRQFLYGGCEGNANNFYTWEACDDACWRIEKVPKVCRLQVSVDDQCEGSTEKYFFNLSSMTCEKFFSGGCHRNRIENRFPDEATCMGFCAPKKIPSFCYSPKDEGLCSANVTRYYFNPRYRTCDAFTYTGCGGNDNNFVSREDCKRACAKALKKKKKMPKLRFASRIRKIRKKQF
Fold Change mRNA: Erythropoietin-producing hepatocyte kinase, EphB6 (NM_004445) [1]: −2.38 fold
Fold Change mRNA: ADAM-TS2 (NM_021599) [1, 3]: −4.62 fold
Fold Change mRNA: Alpha 1 chain of Type XII Collagen (AA669336) [1, 3]: +7.26 fold
Fold Change mRNA: Aquaporin 1 (NM_000385) [1, 3]: +2.30 fold
Fold Change mRNA: Biglycan (BC002416) [1, 3]: −2.29 fold
Fold Change mRNA: Bone morphogenetic protein 4 (D30751) [1, 3]: +2.79 fold
Fold Change mRNA: COUP-transcription factor (X16155) [1, 3]: −2.79 fold
Fold Change mRNA: CUB domain-containing protein 1 (CDCP1) (NM_022842) [1, 3]: −18.70 fold
Fold Change mRNA: Cell death regulator Aven (NM_020371) [1, 3]: −2.11 fold
Fold Change mRNA: Chondroitin sulfate proteoglycan 2 (versican) (D32039) [1, 3]: −2.13 fold
Fold Change mRNA: Collagen, type 1, alpha 1 (NM_000088) [1, 3]: +3.51 fold
Fold Change mRNA: Cytidine deaminase (NM_001785) [1, 3]: +35.30 fold
Fold Change mRNA: EEF1A2, Eukaryotic translation elongation factor 1 alpha 2 (NM_001958) [1, 3]: +6.85 fold
Fold Change mRNA: EGF-TM7-latrophilin-related protein (NM_022159) [1, 3]: −2.92 fold
Fold Change mRNA: EIF2Ak1, protein kinase, PKR (NM_002759) [1, 3]: +2.51 fold
Fold Change mRNA: Endothelin receptor type A (AU118882, NM_001957) [1, 3]: −2.90 fold
Fold Change mRNA: FLT, VEGFR1, Fms-related tyrosine kinase receptor (NM_002019) [1, 3]: −2.24 fold
Fold Change mRNA: Fibronectin 1 (AJ276395) [1, 3]: −3.80 fold
Fold Change mRNA: Formin like (FRL) (NM_005892) [1, 3]: −2.14 fold
Fold Change mRNA: Helicase, Basic leucine zipper transcription factor-1 (NM_001186) [1, 3]: −2.11 fold
Fold Change mRNA: Hemoglobin, epsilon 1, oxygen transport (NM_005330) [1, 3]: −7.63 fold
Fold Change mRNA: Interleukin-8 (IL-8, C—X—CL8) (NM_000584) [1, 3]: −6.99 fold
Fold Change mRNA: Junction plakoglobin (NM_021991) [1, 3]: −2.21 fold
Fold Change mRNA: LIM domain binding 2 (NM_001290) [1, 3]: −5.20 fold
Fold Change mRNA: LIM homeobox protein 6 (NM_014368) [1, 3]: +2.91 fold
Fold Change mRNA: Ligase III, DNA (NM_013975) [1, 3]: +2.04 fold
Fold Change mRNA: Lymphocyte antigen 75, gp200-MR6 (NM_002349) [1, 3]: +14.32 fold
Fold Change mRNA: MAGE-A1, Melanoma antigen family A1 (NM_004988) [1, 3]: −2.95 fold
Fold Change mRNA: Metastasis suppressor gene (NM_014751) [1, 3]: +2.06 fold
Fold Change mRNA: N-Cadherin (M34064) [1, 3]: −2.13 fold
Fold Change mRNA: Neuropeptide Y receptor (L01639) [1, 3]: −8.03 fold
Fold Change mRNA: Nox 4, NADPH oxidase 4 (NM_016931) [1, 3]: −2.46 fold
Fold Change mRNA: Oligophrenin 1 (NM_002547) [1, 3]: +2.95 fold
Fold Change mRNA: PBX-2, Pre-B cell leukemia transcription factor-2 (NM_002586) [1, 3]: −2.75 fold
Fold Change mRNA: Phenylalanine-tRNA synthetase (NM_006567) [1, 3]: +2.11 fold
Fold Change mRNA: Phorbolin-like protein MDS019 (NM_021822) [1, 3]: +2.80 fold
Fold Change mRNA: Protein tyrosine phosphatase, receptor type, U (U71075) [1, 3]: −2.48 fold
Fold Change mRNA: Reversion-inducing-cysteine-rich protein with kazal motif (RECK) (NM_021111) [1, 3]: +2.64 fold
Fold Change mRNA: S100 calcium-binding protein A4 (NM_002961) [1, 3]: +2.79 fold
Fold Change mRNA: Tumor necrosis factor, alpha-induced protein 2 (NM_006291) [1, 3]: +2.98 fold
Fold Change mRNA: Tumor protein D52-like 1 (NM_003287) [1, 3]: +2.10 fold
Fold Change mRNA: Vascular endothelial growth factor C (U58111) [1, 3]: −2.41 fold
Fold Change mRNA: Zinc finger protein 22 (KOX 15) (NM_006963, AA744771) [1, 3]: +29.27 fold
Fold Change mRNA: Zinc finger protein 185 (LIM domain) (NM_006291) [1, 3]: +5.05 fold
Fold Change mRNA: dermatopontin precursor (AI146848) [1, 3]: +2.87 fold
Fold Change mRNA: enigma (LIM domain protein) (AW206786) [1, 3]: −2.32 fold
Fold Change mRNA: fibrillin 1 precursor (AI264196) [1, 3]: −2.48 fold
Fold Change mRNA: platelet derived growth factor alpha polypeptide (NM_002607) [1, 3]: +2.53 fold
Fold Change mRNA: protein tyrosine kinase 7 (NM_002821) [1, 3]: +2.33 fold
Fold Change mRNA: sortilin 1 (SORTI) (BE742268) [1, 3]: −4.21 fold
Fold Change mRNA: thrombospondin 1 precursor (AI812030) [1, 3]: −3.39 fold
Fold Change mRNA: voltage-gated potassium channel activity (AF052169) [1, 3]: +2.48 fold
Fold Change mRNA: Chemokine (C—X—C motif), receptor 4 (fusin) (AF348491) ([1]; TFPI-2 expressing tumors over mock-transfected tumors, first of two values): −4.21 fold
Fold Change mRNA: Chemokine (C—X—C motif), receptor 4 (fusin) (AJ224869) ([1]; TFPI-2 expressing tumors over mock-transfected tumors, second of two values): −27.40 fold
IL-8 down regulated [1, 4]: 6.99 fold
VEGF-C down regulated [1, 4]: 2.41 fold
VEGF-R1 (FLT1) down regulated [1, 4]: 2.24 fold
capillary-like tube formation ([2]; 5 μM, overnight incubation): no complete tube formation even after overnight incubation
inhibition of angiogenesis (capillary-like tube formation) [2]: significantly inhibited the capillary-like tube formation of HUVECs in a dose-dependent manner
inhibition of angiogenesis (capillary-like tube formation) ([2]; listed as wild-type TFPI-2): inhibit angiogenesis
